Experimental data from patent US11306156.
Several values for one entry are separate records, joined by “and”; a condition that tells them apart may be missing. Equal entries are not always repeated.

What was measured:
[1] = target: D3H44 light chain Q124R_Q160K_T178R, N-terminal HA or FLAG tag; assay: LCCA, L1:L2 DNA 1:3, SPR of light chain tags; competing light chain m13
[2] = target: D3H44 light chain Q124R, N-terminal HA or FLAG tag; assay: LCCA, L1:L2 DNA 1:3, SPR of light chain tags; competing light chain m18
[3] = target: D3H44 light chain Q124R_Q160K_T178R, N-terminal HA or FLAG tag; assay: LCCA, L1:L2 DNA 1:3, SPR of light chain tags; competing light chain m20
[4] = target: D3H44 light chain Q124E_V133E, N-terminal HA or FLAG tag; assay: LCCA, L1:L2 DNA 1:9, SPR of light chain tags; competing light chain m17
[5] = target: D3H44 light chain Q124E_V133E, N-terminal HA or FLAG tag; assay: LCCA, L1:L2 DNA 1:3, SPR of light chain tags; competing light chain m17
[6] = target: D3H44 light chain Q124R, N-terminal HA or FLAG tag; assay: LCCA, L1:L2 DNA 1:9, SPR of light chain tags; competing light chain m18
[7] = target: D3H44 light chain Q124E_Q160E_T178E, N-terminal HA or FLAG tag; assay: LCCA, L1:L2 DNA 1:3, SPR of light chain tags; competing light chain m14
[8] = target: D3H44 light chain Q124E_T180E, N-terminal HA or FLAG tag; assay: as above
[9] = target: D3H44 light chain T178R, N-terminal HA or FLAG tag; assay: LCCA, L1:L2 DNA 1:3, SPR of light chain tags; competing light chain m13
[10] = target: D3H44 light chain Q124R_T178R, N-terminal HA or FLAG tag; assay: as above
[11] = target: D3H44 light chain Q124E_Q160E_T180E, N-terminal HA or FLAG tag; assay: LCCA, L1:L2 DNA 1:3, SPR of light chain tags; competing light chain m16
[12] = target: D3H44 light chain Q124E_Q160E_T180E, N-terminal HA or FLAG tag; assay: LCCA, L1:L2 DNA 1:9, SPR of light chain tags; competing light chain m12
[13] = target: D3H44 light chain Q124E_Q160E_T180E, N-terminal HA or FLAG tag; assay: LCCA, L1:L2 DNA 1:3, SPR of light chain tags; competing light chain m12
[14] = target: D3H44 light chain Q124E_T180E, N-terminal HA or FLAG tag; assay: as above
[15] = target: D3H44 light chain Q124E_Q160E_T180E, N-terminal HA or FLAG tag; assay: LCCA, L1:L2 DNA 1:3, SPR of light chain tags; competing light chain m15
[16] = target: D3H44 light chain Q124K_T178R, N-terminal HA or FLAG tag; assay: LCCA, L1:L2 DNA 1:9, SPR of light chain tags; competing light chain m11
[17] = target: D3H44 light chain Q124R_T178K, N-terminal HA or FLAG tag; assay: as above
[18] = target: D3H44 light chain Q124R_T178R, N-terminal HA or FLAG tag; assay: as above
[19] = target: D3H44 light chain Q124E_Q160E_T180E, N-terminal HA or FLAG tag; assay: LCCA, L1:L2 DNA 1:9, SPR of light chain tags; competing light chain m15
[20] = target: D3H44 light chain Q124E_T180E, N-terminal HA or FLAG tag; assay: LCCA, L1:L2 DNA 1:3, SPR of light chain tags; competing light chain m10
[21] = target: D3H44 light chain Q124K_T178R, N-terminal HA or FLAG tag; assay: LCCA, L1:L2 DNA 1:3, SPR of light chain tags; competing light chain m11
[22] = target: D3H44 light chain Q124R_T178K, N-terminal HA or FLAG tag; assay: as above
[23] = target: D3H44 light chain Q124R_T178R, N-terminal HA or FLAG tag; assay: as above
[24] = target: D3H44 light chain Q124E_Q160E_T180E, N-terminal HA or FLAG tag; assay: LCCA, L1:L2 DNA 1:9, SPR of light chain tags; competing light chain m16
[25] = target: D3H44 light chain Q124K_T178R, N-terminal HA or FLAG tag; assay: LCCA, L1:L2 DNA 1:3, SPR of light chain tags; competing light chain m13
[26] = target: D3H44 light chain Q124E_T180E, N-terminal HA or FLAG tag; assay: LCCA, L1:L2 DNA 1:3, SPR of light chain tags; competing light chain m15

## D3H44 Fab heavy chain L143E_K145T, C-terminal ABD2-His6 tag
[1]
  H1L1:H1L2 normalized median ratio: 59 share of 100
  H1L1:H1L2 normalized median scalar value ln(r1/f1): 0.33 and 0.38
[2]
  H1L1:H1L2 normalized median ratio: 91 share of 100
  H1L1:H1L2 normalized median scalar value ln(r1/f1): 2.37
[3]
  H1L1:H1L2 normalized median ratio: 59 share of 100
  H1L1:H1L2 normalized median scalar value ln(r1/f1): 0.37
[4]
  H1L1:H1L2 normalized median ratio: 12 share of 100
[5]
  H1L1:H1L2 normalized median ratio: 9 share of 100
[6]
  H1L1:H1L2 normalized median ratio: 88 share of 100
  H1L1:H1L2 normalized median scalar value ln(r1/f1): 1.95
[7]
  H1L1:H1L2 normalized median ratio: 41 share of 100
[8]
  H1L1:H1L2 normalized median ratio: 41 share of 100

## D3H44 Fab heavy chain L143E_K145T_Q179D, C-terminal ABD2-His6 tag
[9]
  H1L1:H1L2 normalized median ratio: 65 share of 100
  H1L1:H1L2 normalized median scalar value ln(r1/f1): 0.64
[1]
  H1L1:H1L2 normalized median ratio: 69 share of 100
  H1L1:H1L2 normalized median scalar value ln(r1/f1): 0.79
[10]
  H1L1:H1L2 normalized median ratio: 76 share of 100
  H1L1:H1L2 normalized median scalar value ln(r1/f1): 1.14
[11]
  H1L1:H1L2 normalized median ratio: 11 share of 100
[12]
  H1L1:H1L2 normalized median ratio: 18 share of 100
[13]
  H1L1:H1L2 normalized median ratio: 13 share of 100
[14]
  H1L1:H1L2 normalized median ratio: 24 share of 100
[15]
  H1L1:H1L2 normalized median ratio: 14 share of 100
[16]
  H1L1:H1L2 normalized median ratio: 86 share of 100
  H1L1:H1L2 normalized median scalar value ln(r1/f1): 1.84
[17]
  H1L1:H1L2 normalized median ratio: 78 share of 100
  H1L1:H1L2 normalized median scalar value ln(r1/f1): 1.28
[18]
  H1L1:H1L2 normalized median ratio: 82 share of 100
  H1L1:H1L2 normalized median scalar value ln(r1/f1): 1.55
[19]
  H1L1:H1L2 normalized median ratio: 14 share of 100
[20]
  H1L1:H1L2 normalized median ratio: 35 share of 100
[21]
  H1L1:H1L2 normalized median ratio: 86 share of 100
  H1L1:H1L2 normalized median scalar value ln(r1/f1): 1.78
[22]
  H1L1:H1L2 normalized median ratio: 89 share of 100
  H1L1:H1L2 normalized median scalar value ln(r1/f1): 2.08 and 2.03
[23]
  H1L1:H1L2 normalized median ratio: 87 share of 100
  H1L1:H1L2 normalized median scalar value ln(r1/f1): 1.9
[8]
  H1L1:H1L2 normalized median ratio: 31 share of 100
[24]
  H1L1:H1L2 normalized median ratio: 22 share of 100

## D3H44 Fab heavy chain L143E_K145T_Q179E, C-terminal ABD2-His6 tag
[9]
  H1L1:H1L2 normalized median ratio: 60 share of 100
  H1L1:H1L2 normalized median scalar value ln(r1/f1): 0.41
[25]
  H1L1:H1L2 normalized median ratio: 70 share of 100
  H1L1:H1L2 normalized median scalar value ln(r1/f1): 0.84
[1]
  H1L1:H1L2 normalized median ratio: 73 share of 100
  H1L1:H1L2 normalized median scalar value ln(r1/f1): 1
[11]
  H1L1:H1L2 normalized median ratio: 17 share of 100
[12]
  H1L1:H1L2 normalized median ratio: 22 share of 100
[13]
  H1L1:H1L2 normalized median ratio: 9 share of 100
[26]
  H1L1:H1L2 normalized median ratio: 30 share of 100
[18]
  H1L1:H1L2 normalized median ratio: 78 share of 100
  H1L1:H1L2 normalized median scalar value ln(r1/f1): 1.29
[20]
  H1L1:H1L2 normalized median ratio: 40 share of 100
[22]
  H1L1:H1L2 normalized median ratio: 83 share of 100 and 33 share of 100
  H1L1:H1L2 normalized median scalar value ln(r1/f1): 1.62
[23]
  H1L1:H1L2 normalized median ratio: 91 share of 100
  H1L1:H1L2 normalized median scalar value ln(r1/f1): 2.27
[8]
  H1L1:H1L2 normalized median ratio: 27 share of 100
